In the supplement of paper PMC5998384:

Tests used:
HeLa Kyoto [1] = test: solubility in G1/S (NP-40 vs SDS abundance) (log2 ratio); higher = more soluble; conditions: cell cycle stage: G1/S
HeLa Kyoto [2] = test: solubility change mitosis vs G1/S (difference of NP-40 vs SDS log2 ratios) (log2 ratio difference); higher = more soluble in mitosis
HeLa Kyoto [3] = test: thermal stability score vs G1/S (z-score of summed log2 fold changes over temperatures); higher = more thermally stable than in G1/S
HeLa Kyoto [4] = test: melting temperature (median over replicates), in situ; higher = more thermally stable
[5] = cell cycle stage: early G1 (4.5 h after nocodazole release)
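Wherever melting temperature (median over replicates), in situ is given: HeLa Kyoto cells synchronized by double thymidine or nocodazole block, proteins quantified by TMT10plex mass spectrometry, three independent biological replicates.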
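Wherever solubility change mitosis vs G1/S (difference of NP-40 vs SDS log2 ratios) is given: synchronized HeLa Kyoto cells (double thymidine block for G1/S, nocodazole release for mitosis), protein amounts in NP-40 versus SDS lysates quantified by mass spectrometry, three biological replicates.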
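Wherever solubility in G1/S (NP-40 vs SDS abundance) is given: HeLa Kyoto cells arrested at G1/S by double thymidine block, proteins quantified by TMT10plex mass spectrometry in mild NP-40 versus SDS extracts, three biological replicates.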
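Wherever thermal stability score vs G1/S (z-score of summed log2 fold changes over temperatures) is given: synchronized HeLa Kyoto cells, proteins quantified by TMT10plex mass spectrometry, three biological replicates, mitosis taken 0.5 h after nocodazole release, G1/S directly after double thymidine block.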

Sequence of TIMM17A (chain, as listed by the source): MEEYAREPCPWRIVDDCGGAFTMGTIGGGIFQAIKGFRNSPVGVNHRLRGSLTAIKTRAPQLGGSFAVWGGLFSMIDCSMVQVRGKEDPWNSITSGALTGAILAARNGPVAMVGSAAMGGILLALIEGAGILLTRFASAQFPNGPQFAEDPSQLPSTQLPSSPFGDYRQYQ

Substance | solubility in G1/S (log2) (HeLa Kyoto [1]) | solubility change mitosis (log2) (HeLa Kyoto [2]) | thermal stability score (HeLa Kyoto [3]; [5]) | thermal stability score (HeLa Kyoto [3]; cell cycle stage: mitosis) | melting temperature (HeLa Kyoto [4]; cell cycle stage: G1/S) [°C] | melting temperature (HeLa Kyoto [4]; cell cycle stage: mitosis) [°C]
MLEEAGEVLENMLKASCLPLGFIVFLPAVLLLVAPPLPAADAAHEFTVYRMQQYDLQGQPYGTRNAVLNTEARTMAAEVLSRRCVLMRLLDFSYEQYQKALRQSAGAVVIILPRAMAAVPQDVVRQFMEIEPEMLAMETAVPVYFAVEDEALLSIYKQTQAASASQGSASAAEVLLRTATANGFQMVTSGVQSKAVSDWLIASVEGRLTGLGGEDLPTIVIVAHYDAFGVAPWLSLGADSNGSGVSVLLELARLFSRLYTYKRTHAAYNLLFFASGGGKFNYQGTKRWLEDNLDHTDSSLLQDNVAFVLCLDTVGRGSSLHLHVSKPPREGTLQHAFLRELETVAAHQFPEVRFSMVHKRINLAEDVLAWEHERFAIRRLPAFTLSHLESHRDGQRSSIMDVRSRVDSKTLTRNTRIIAEALTRVIYNLTEKGTPPDMPVFTEQMQIQQEQLDSVMDWLTNQPRAAQLVDKDSTFLSTLEHHLSRYLKDVKQHHVKADKRDPEFVFYDQLKQVMNAYRVKPAVFDLLLAVGIAAYLGMAYVAVQHFSLLYKTVQRLLVKAKTQ [NCLN] | 0.0995 | -0.129 | 2.71 | 3.43 | 53.9 | 53.7
MEESHFNSNPYFWPSIPTVSGQIENTMFINKMKDQLLPEKGCGLAPPHYPTLLTVPASVSLPSGISMDTESKSDQLTPHSQASVTQNITVVPVPSTGLMTAGVSCSQRWRREGSQSRGPGLVITSPSGSLVTTASSAQTFPISAPMIVSALPPGSQALQVVPDLSKKVASTLTEEGGGGGGGGGSVAPKPPRGRKKKRMLESGLPEMNDPYVLSPEDDDDHQKDGKTYRCRMCSLTFYSKSEMQIHSKSHTETKPHKCPHCSKTFANSSYLAQHIRIHSGAKPYSCNFCEKSFRQLSHLQQHTRIHSKMHTETIKPHKCPHCSKTFANTSYLAQHLRIHSGAKPYNCSYCQKAFRQLSHLQQHTRIHTGDRPYKCAHPGCEKAFTQLSNLQSHRRQHNKDKPFKCHNCHRAYTDAASLEVHLSTHTVKHAKVYTCTICSRAYTSETYLMKHMRKHNPPDLQQQVQAAAAAAAVAQAQAQAQAQAQAQAQAQAQAQASQASQQQQQQQQQQQQQQQQPPPHFQSPGAAPQGGGGGDSNPNPPPQCSFDLTPYKTAEHHKDICLTVTTSTIQVEHLASS [ZNF384] | -0.109 | 0.0582 | -0.69 | -1.1 | 51.6 | 52.4
MWRLPGARAALRVIRTAVEKLSRAEAGSQTAAGAMERAVVRCVPSEPKLSLSFALADGSHKNMQRDQSEPLGRVLSRIATNALKGHAKAAAAKKSRKSRPNASGGAACSGPGPEPAVFCEPVVKLYYREEAVAEDVLNVDAWQDGAVLQIGDVKYKVERNPPAFTELQLPRYIMAGFPVCPKLSLEFGDPASSLFRWYKEAKPGAAEPEVGVPSSLSPSSPSSSWTETDVEERVYTPSNADIGLRLKLHCTPGDGQRFGHSRELESVCVVEAGPGTCTFDHRHLYTKKVTEDALIRTVSYNILADTYAQTEFSRTVLYPYCAPYALELDYRQNLIQKELTGYNADVICLQEVDRAVFSDSLVPALEAFGLEGVFRIKQHEGLATFYRKSKFSLLSQHDISFYEALESDPLHKELLEKLVLYPSAQEKVLQRSSVLQVSVLQSTKDSSKRICVANTHLYWHPKGGYIRLIQMAVALAHIRHVSCDLYPGIPVIFCGDFNSTPSTGMYHFVINGSIPEDHEDWASNGEEERCNMSLTHFFKLKSACGEPAYTNYVGGFHGCLDYIFIDLNALEVEQVIPLPSHEEVTTHQALPSVSHPSDHIALVCDLKWK [PDE12] | 0.0541 | -0.171 | -1.65 | -1.58 | 52.1 | 52.3
TIMM17A | 0.157 | -0.00894 | -1.93 | -3.23 | 58.5 | 58.7
MNPRQGYSLSGYYTHPFQGYEHRQLRYQQPGPGSSPSSFLLKQIEFLKGQLPEAPVIGKQTPSLPPSLPGLRPRFPVLLASSTRGRQVDIRGVPRGVHLRSQGLQRGFQHPSPRGRSLPQRGVDCLSSHFQELSIYQDQEQRILKFLEELGEGKATTAHDLSGKLGTPKKEINRVLYSLAKKGKLQKEAGTPPLWKIAVSTQAWNQHSGVVRPDGHSQGAPNSDPSLEPEDRNSTSVSEDLLEPFIAVSAQAWNQHSGVVRPDSHSQGSPNSDPGLEPEDSNSTSALEDPLEFLDMAEIKEKICDYLFNVSDSSALNLAKNIGLTKARDINAVLIDMERQGDVYRQGTTPPIWHLTDKKRERMQIKRNTNSVPETAPAAIPETKRNAEFLTCNIPTSNASNNMVTTEKVENGQEPVIKLENRQEARPEPARLKPPVHYNGPSKAGYVDFENGQWATDDIPDDLNSIRAAPGEFRAIMEMPSFYSHGLPRCSPYKKLTECQLKNPISGLLEYAQFASQTCEFNMIEQSGPPHEPRFKFQVVINGREFPPAEAGSKKVAKQDAAMKAMTILLEEAKAKDSGKSEESSHYSTEKESEKTAESQTPTPSATSFFSGKSPVTTLLECMHKLGNSCEFRLLSKEGPAHEPKFQYCVAVGAQTFPSVSAPSKKVAKQMAAEEAMKALHGEATNSMASDNQPEGMISESLDNLESMMPNKVRKIGELVRYLNTNPVGGLLEYARSHGFAAEFKLVDQSGPPHEPKFVYQAKVGGRWFPAVCAHSKKQGKQEAADAALRVLIGENEKAERMGFTEVTPVTGASLRRTMLLLSRSPEAQPKTLPLTGSTFHDQIAMLSHRCFNTLTNSFQPSLLGRKILAAIIMKKDSEDMGVVVSLGTGNRCVKGDSLSLKGETVNDCHAEIISRRGFIRFLYSELMKYNSQTAKDSIFEPAKGGEKLQIKKTVSFHLYISTAPCGDGALFDKSCSDRAMESTESRHYPVFENPKQGKLRTKVENGEGTIPVESSDIVPTWDGIRLGERLRTMSCSDKILRWNVLGLQGALLTHFLQPIYLKSVTLGYLFSQGHLTRAICCRVTRDGSAFEDGLRHPFIVNHPKVGRVSIYDSKRQSGKTKETSVNWCLADGYDLEILDGTRGTVDGPRNELSRVSKKNIFLLFKKLCSFRYRRDLLRLSYGEAKKAARDYETAKNYFKKGLKDMGYGNWISKPQEEKNFYLCPV [ADAR] | -0.466 | 0.346 | 2.76 | 5.55 | 47.9 | 49
MSELEQLRQEAEQLRNQIRDARKACGDSTLTQITAGLDPVGRIQMRTRRTLRGHLAKIYAMHWGTDSRLLVSASQDGKLIIWDSYTTNKVHAIPLRSSWVMTCAYAPSGNFVACGGLDNICSIYSLKTREGNVRVSRELPGHTGYLSCCRFLDDNQIITSSGDTTCALWDIETGQQTVGFAGHSGDVMSLSLAPDGRTFVSGACDASIKLWDVRDSMCRQTFIGHESDINAVAFFPNGYAFTTGSDDATCRLFDLRADQELLMYSHDNIICGITSVAFSRSGRLLLAGYDDFNCNIWDAMKGDRAGVLAGHDNRVSCLGVTDDGMAVATGSWDSFLKIWN [GNB2] | -0.771 | -0.136 | -0.768 | -0.878 | 55.6 | 55.5
RB1CC1 | -0.0448 | -0.219 | -0.0649 | 0.267 | 51.4 | 50.2
MEAVLTEELDEEEQLLRRHRKEKKELQAKIQGMKNAVPKNDKKRRKQLTEDVAKLEKEMEQKHREELEQLKLTTKENKIDSVAVNISNLVLENQPPRISKAQKRREKKAALEKEREERIAEAEIENLTGARHMESEKLAQILAARQLEIKQIPSDGHCMYKAIEDQLKEKDCALTVVALRSQTAEYMQSHVEDFLPFLTNPNTGDMYTPEEFQKYCEDIVNTAAWGGQLELRALSHILQTPIEIIQADSPPIIVGEEYSKKPLILVYMRHAYGLGEHYNSVTRLVNIVTENCS [OTUD6B] | 0.512 | -0.0729 | 0.405 | 0.425 | 49.9 | 50
